Assay results from US20040013674A1 (APOXIS, published 2004).

Assays:
[1] = molecular target: T1, N-terminally FLAG-tagged full length human TACI, expressed on 293EBNA cells (plasmid pJST552) (human, UniProt O14836 1-293); assay: FACS on 293EBNA cells transfected with pJST552; rabbit anti-murine APRIL and donkey anti-rabbit-PE
T1 construct: also called flag-tagged full length TACI; TACI transfected cells; not shown: N-terminal FLAG tag (and any leader) of the pJST552 insert
T1 sequence: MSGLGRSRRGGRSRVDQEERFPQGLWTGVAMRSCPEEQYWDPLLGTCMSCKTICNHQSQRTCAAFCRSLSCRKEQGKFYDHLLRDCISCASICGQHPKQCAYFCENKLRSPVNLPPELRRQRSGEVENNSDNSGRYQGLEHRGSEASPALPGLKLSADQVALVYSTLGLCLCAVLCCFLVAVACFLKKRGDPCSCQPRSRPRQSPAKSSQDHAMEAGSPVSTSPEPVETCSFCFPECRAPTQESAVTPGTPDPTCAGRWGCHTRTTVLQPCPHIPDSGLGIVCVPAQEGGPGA
Experimental: FIG. 8 is a schematic representation of purified myc-tagged murine APRIL binding to TACI transfected cells. 293EBNA cells were transfected with expression plasmid pJST552 that expressed FLAG-tagged full length human TACI. Cells were harvested 48 hours later using 5 mM EDTA and stained with myc-tagged murine APRIL at various concentrations. No protein control was stained with detection reagents (rabbit anti-murine APRIL and donkey anti-rabbit-PE (Jackson Immnunoresearch)). Staining in FL1 of protein encoded by the cotransfected GFP expression plasmid illustrates expression efficiency.
293EBNA cells were co-transfected with a plasmids expressing full length N-terminally FLAG tagged human TACI (pJST552)(see FIG. 2), and a GFP marker, (AN050). Transfections were performed using Lipofectamine 2000 (LifeTechnologies) according to manufacturer's conditions. Transfection media was DMEM supplemented with 10% FBS, 4 mM glutamine, and 50 μM Z-VAD (BACHEM Bioscience Inc.) Cells were harvested with PBS supplemented with 5 mM EDTA at 24 hours post-transfection. Cells were washed in FACS buffer (PBS-10% FBS-0.02% NaN₃) and resuspended at a density of 5×10⁶ cells/mL. […] The samples were analyzed by FACS and plotted (FIG. 8). Cell gate analyzed is shown as R1. […]

[2] = molecular target: T2, FLAG-tagged soluble muBAFF (murine, UniProt Q9WU72 127-309, limits assumed); assay: co-immunoprecipitation on protein A-Sepharose, anti-FLAG M2 Western blot
T2 construct: not shown: FLAG tag
Experimental: 250 μl of Optimem containing hTACI(1-160)-Ig was mixed with various FLAG ligands of the TNF family. Some of the ligands were in Optimem while others were anti-FLAG (mAb M2)-purified. The common characteristic was that the amount used was empirically the same (500 ng for purified ligands, i.e. hBAFF, muBAFF, TRAIL, FasL, EDA). Ligands were produced in bacteria (HBAFF, TRAIL) or transiently expressed in 293 EBNA cells (all others). Control Receptors-Fc were mostly used as Optimem supernates, except TNFR1, OX40, LTBR, which were purified over protein-A columns. 1 μg of purified receptors was used. Receptor-Fc proteins (about 1 μg) were mixed with FLAG-ligands (about 500 ng). Volume was adjusted to 1.2 ml with PBS and 5 μl of protein A-Sepharose was added. Incubation was performed for 1 h at 4° C. on a wheel. Beads were harvested by centrifugation and loaded onto a minicolumn (yellow tips with 1 mm diameter frit). Washes were performed by applying vacuum at the bottom of the column to aspirate medium and 2 times 400 μl PBS washes. The dried beads were eluted with 20 μl of Citrate-NaOH pH 2.7 and the eluate was neutralized with 6 μl of 1M Tris-HCl pH 9.0. 10 μl 3x sample buffer plus DTT was added, the sample was boiled and 22 μl loaded for Western blot analysis. […] ECL was used to illuminate the signal. […]

T2 sequence (Q9WU72 127-309 limits assumed): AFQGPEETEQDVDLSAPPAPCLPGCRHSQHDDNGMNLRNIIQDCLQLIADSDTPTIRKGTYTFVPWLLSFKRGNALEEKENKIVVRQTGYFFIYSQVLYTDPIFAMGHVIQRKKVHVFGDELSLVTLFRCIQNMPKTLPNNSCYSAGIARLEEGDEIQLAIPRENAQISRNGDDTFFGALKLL

Binder	binding result [1]	binding result [2]
myc-tagged murine APRIL (A88), expressed in Pichia pastoris (plasmid pCMM276) (ligand, glycosylated (as printed in paragraph 69), also called myc-muAPRIL; Myc-Murine APRIL A88) EQKLISEEDLNGGGGSKELAVLTQKHKKKHSVLHLVPVNITSKDSDVTEVMWQPVLRRGRGLEAQGDIVRVWDTGIYLLYSQVLFHDVTFTMGQVVSREGQGRRETLFRCIRSMPSDPDRAYNSCYSAGVFHLHQGDIITVKIPRANAKLSLSPHGTFLGFVKL	binds	
human TACI(1-160)-Ig fusion protein (plasmid PS882) (Fc fusion, Used as conditioned medium (Optimem) of 293 cells; also called hTACI(1-160)-Ig; soluble hTACI(1-160)-Ig; not shown: human IgG Fc) MSGLGRSRRGGRSRVDQEERFPQGLWTGVAMRSCPEEQYWDPLLGTCMSCKTICNHQSQRTCAAFCRSLSCRKEQGKFYDHLLRDCISCASICGQHPKQCAYFCENKLRSPVNLPPELRRQRSGEVENNSDNSGRYQGLEHRGSEASPALPGLKLSADQV		no binding (tested: 500 ng purified ligand)
